Results as given in PMC549571.
Like-named read-outs stand apart in the source and are kept apart here.

B1: non-telomeric mixed (MXT/MXB) (dsDNA)
DNA 1: GTGGATCCGTACGATGGTTTTAGGTGAACACGAATTCGA
DNA 2: TCGAATTCGTGTTCACCTAAAACCATCGTACGGATCCAC
B2: CTRL (dsDNA)
DNA 1: GTGGATCCGTACTTAGGGTTAGGGTTAACACGAATTCGA
DNA 2: TCGAATTCGTGTTAACCCTAACCCTAAGTACGGATCCAC
B3: 8oxoG1-1 (dsDNA)
DNA 1: B2 DNA 1
DNA 2: B2 DNA 2
modifications: 8-oxoG at positions 17, 23 of strand 1
B4: 8oxoG2 (dsDNA)
DNA 1: B2 DNA 1
DNA 2: B2 DNA 2
modifications: 8-oxoG at positions 17, 18 of strand 1
B5: 8oxoG1 (dsDNA)
DNA 1: B2 DNA 1
DNA 2: B2 DNA 2
modifications: 8-oxoG at position 17 of strand 1
B6: 8oxoG3 (dsDNA)
DNA 1: B2 DNA 1
DNA 2: B2 DNA 2
modifications: 8-oxoG at positions 16, 17, 18 of strand 1

What was measured:
Test in all cases: EMSA
TRF1 [1] = target: T1, TRF1 (Homo sapiens, UniProt P54274 1-439)
TRF2ΔN [2] = target: T2, TRF2ΔN (Homo sapiens, UniProt Q15554 87-542)
TRF1 [3] = target: T1, TRF1; remark: listed apart in the source
TRF2ΔN [4] = target: T2, TRF2ΔN; remark: listed apart in the source
TRF1 [5] = target: T1, TRF1; remark: listed apart in the source

T2 sequence (Q15554 87-542, stated change not applied): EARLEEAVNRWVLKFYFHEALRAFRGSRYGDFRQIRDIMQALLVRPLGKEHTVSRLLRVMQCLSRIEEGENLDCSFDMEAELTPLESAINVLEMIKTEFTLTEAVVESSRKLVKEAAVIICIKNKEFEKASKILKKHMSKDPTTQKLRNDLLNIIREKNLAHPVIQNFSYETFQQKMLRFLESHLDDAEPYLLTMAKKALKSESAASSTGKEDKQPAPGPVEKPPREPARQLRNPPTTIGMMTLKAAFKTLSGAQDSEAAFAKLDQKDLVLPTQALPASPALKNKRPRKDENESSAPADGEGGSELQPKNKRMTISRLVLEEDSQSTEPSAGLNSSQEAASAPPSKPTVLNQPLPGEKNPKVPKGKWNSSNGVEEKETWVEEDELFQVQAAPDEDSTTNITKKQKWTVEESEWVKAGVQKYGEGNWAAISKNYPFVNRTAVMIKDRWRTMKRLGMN
T1 sequence (P54274 whole entry): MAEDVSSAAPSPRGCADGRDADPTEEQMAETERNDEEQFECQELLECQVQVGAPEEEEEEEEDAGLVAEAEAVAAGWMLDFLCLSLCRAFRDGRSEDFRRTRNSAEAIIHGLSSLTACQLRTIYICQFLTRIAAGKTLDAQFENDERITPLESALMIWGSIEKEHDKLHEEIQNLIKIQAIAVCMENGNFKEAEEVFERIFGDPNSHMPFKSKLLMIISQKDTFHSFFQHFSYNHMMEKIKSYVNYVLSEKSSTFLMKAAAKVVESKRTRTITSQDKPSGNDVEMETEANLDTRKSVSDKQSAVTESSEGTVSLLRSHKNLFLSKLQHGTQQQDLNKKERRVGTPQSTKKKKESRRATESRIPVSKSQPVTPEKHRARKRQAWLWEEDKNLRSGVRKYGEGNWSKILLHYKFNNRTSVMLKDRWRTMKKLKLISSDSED

Binder | binding signal (TRF1 [3]) | binding signal (TRF2ΔN [4]) | other results
B1 |  |  | binding result (TRF1 [1]): no binding; binding result (TRF2ΔN [2]): no binding
B2 | 61 ± 6 % bound at 25 nM TRF1 | 55 % bound at 100 nM TRF2ΔN | 
B3 |  |  | binding signal (TRF1 [5]): 18 fold decrease in % bound vs control at 25 nM TRF1
B4 | 29 ± 2 % bound at 25 nM TRF1 | 17 % bound at 100 nM TRF2ΔN | 
B5 | 31 ± 6 % bound at 25 nM TRF1 | 11 % bound at 100 nM TRF2ΔN | 
B6 | 21 fold decrease in % bound vs control at 25 nM TRF1 |  | 
